How the values were obtained:
[1] = substrate: O=P(O)(O)OC1O[C@@H](CO)[C@@H](O)[C@@H](O)[C@@H]1O; assay: phosphate release, malachite green; assay type: biochemical, Solanum lycopersicum; conditions: 3.5 mM MgCl2, 50 mM Tris-Cl pH 7.0, 25 °C
[2] = substrate: O=P(O)(O)O[C@@H]1[C@@H](O)[C@H](O)[C@@H](O)[C@H](O)[C@@H]1O; assay: phosphate release, malachite green; assay type: biochemical, Solanum lycopersicum; conditions: 3.5 mM MgCl2, 50 mM Tris-Cl pH 7.0, 25 °C

B1: SlIMP3 (Solanum lycopersicum) (protein)
chain: MAQNGSVEQFLDVAVEAAKKAGEIIREGFYKTKHVEHKGMVDLVTETDKACEDFIFNHLKQRFPSHKFIGEETTAACGNFELTDEPTWIVDPLDGTTNFVHGFPFVCVSIGLTIEKKPTVGVVYNPIIDELFTGIDGKGAFLNGKPIKVSSQSELVKALLATEAGTNRDKLVVDATTGRINSLLFKVRSLRMCGSCALNLCGVACGRLDLFYELEFGGPWDVAGGAVIVKEAGGFVFDPSGSEFDLTARRVAATNAHLKDAFIKALNE
notes: tag removal not mentioned
Km [1]: 0.29 mM | Km [2]: 0.28 mM
